According to patent publication US20250002943:

Tested on: Bxb1 integrase (serine recombinase) (Mycobacterium phage Bxb1?)
Assay: cell_activity

| Substance | activity (% mNeonGreen-positive cells) (attB on cargo recombined with genomic attP in hiPSCs, 0.01% without cargo and Bxb1 plasmids) | activity (% mNeonGreen-positive cells) (attP x attB recombination in hiPSCs, all components delivered with Cas9 RNP, 0.38% without attP ssODN template) |
| --- | --- | --- |
| Bxb1 attB site on circularised mNeonGreen cargo | 11.3 | – |
| Bxb1 attP site (58 nt, integrated at ACTR10 via ssODN) | – | 11.3 |
